This is an account of results in paper PMC4260256, “A novel serine hydroxymethyltransferase from Arthrobacter nicotianae: characterization and improving catalytic efficiency by rational design” (BMC Biotechnology, 2014).

The Km is the concentration of substrate that gives half-maximal velocity. The kcat/Km is the second-order rate constant that governs catalysis at low substrate concentration.

The test system of this data set is NC(C(=O)O)C(O)c1ccccc1. The data set can be described thus: purified protein. Particulars: pH 7.8; 40.0 °C.

Regarding “AnSHMT (Glutamicibacter nicotianae; I249L)”, the Km is 61.95 ± 0.13 mM and the kcat/Km is 76.8 M⁻¹ s⁻¹.
